Target: the molecule itself
Assay: crystal structure; MvfR LBD with the inhibitor M64 bound; space group C 2 2 2_(1), 2.65 Å, two monomers in the asymmetric unit; tetrameric arrangement in the crystal

B1: MvfR ligand binding domain (LBD), residues 94 to 295 (domain or fragment)
chain: TNLRVLLDTAIPPSFCDTVSSVLLDDFNMVSLIRTSPADSLATIKQDNAEIDIAITIDEELKISRFNQCVLGYTKAFVVAHPQHPLCNASLHSIASLANYRQISLGSRSGQHSNLLRPVSDKVLFVENFDDMLRLVEAGVGWGIAPHYFVEERLRNGTLAVLSELYEPGGIDTKVYCYYNTALESERSFLRFLESARQRLREL
notes: Thr that precedes residue 94 in the construct (His-THB-SUMO-ULP-Thr) and is left after cleavage with SEN protease; the model numbers it Thr93; Q9I4X0 is the entry of strain PAO1; Cloned into pET28a; the model comprises Thr93 to Leu295; also called MvfR LBD; PqsR LBD; source: E. coli BL21(DE3), purified (Ni-NTA, negative Ni-NTA after cleavage of the tag with SEN protease, gel filtration); not …
**Q.** How did the “stoichiometry N” value turn out when B1 was run?
**A.** Its value is 4.

— publication PMC5770554, “Molecular Insights into Function and Competitive Inhibition of Pseudomonas aeruginosa Multiple Virulence Factor Regulator” (mBio, 2018)
